Results reported in the supplement of paper PMC10724198.
± gives the standard deviation of the averaged measurements.
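Also: PSI is a weighted mean of sequencing reads over stability bins, variants kept only with over 10 reads, mCherry proximal and sfGFP distal, peptide attached via GGGS linker.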

Each sequence was assayed on Saccharomyces cerevisiae (assay: protein stability index of tFT-peptide fusion (C-terminal peptide) (PSI (0-1 scale)); higher = more stable (slower turnover)). Details: genetic background: wild type; temperature: 30 C.
Experimental: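 Multiplexed protein stability (MPS) profiling in S. cerevisiae. Random 12-aa peptides (tFT-X12 library) are fused to the C-terminus of a sfGFP-mCherry tandem fluorescent timer, after mCherry and a GGGS linker. Cells are FACS-sorted into 8 mCherry/sfGFP bins and deep-sequenced. The protein stability index (PSI) is the read-weighted bin average, scaled from 0 (unstable) to 1 (stable). Only peptides with >10 reads are reported; cells were grown at 30 °C in SC-His with glucose.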
With PPASPPLPPPRP the protein stability index was 0.689 ± 0.042. FFCLWFLSFLRF gave a protein stability index of 0.572 ± 0.01. DEEVGWGRGVGW showed a protein stability index of 0.72 ± 0.074. CGVRQVGEIAVA was tested, and the protein stability index was 0.526 ± 0.022. EVSGRCRRPDDQ was tested, and the protein stability index was 0.679 ± 0.041. For PHPCSPAPPWPL, the protein stability index was 0.694 ± 0.028. In the case of KKQKKKKKRNRK, the protein stability index is reported as 0.654 ± 0.028. LFSPPTFFLFHR was tested, and the protein stability index was 0.6445 ± 0.0046. TNTQRYRKTRST gave a protein stability index of 0.721 ± 0.054. For DGLWIYNINDGH, the protein stability index was 0.7314 ± 0.0019. GIEKEADRVRKN gave a protein stability index of 0.659 ± 0.07. For SFRLRSLVFGFF, the protein stability index was 0.597 ± 0.067. For LPPSPLLLTSPP, the protein stability index was 0.687 ± 0.016. ACRREMISVLYT showed a protein stability index of 0.624 ± 0.0075. Sequence VQNPVTTPQEQF has a protein stability index of 0.684 ± 0.043. PVFGRPFCSSSV showed a protein stability index of 0.682 ± 0.061. EEFTSRAFRISW gave a protein stability index of 0.744 ± 0.13. With GGVTEGPGWCVR the protein stability index was 0.735 ± 0.017. Work on PPPPPPLSPCPS yielded a protein stability index of 0.704 ± 0.099. KNIRKITHGIGN showed a protein stability index of 0.623 ± 0.072. For KNESIRKKKPKK, the protein stability index was 0.734 ± 0.033. NYDTIYGLHLYT gave a protein stability index of 0.73 ± 0.015. For KKKKKKKGIILD, the protein stability index was 0.737 ± 0.097. For KKNKKNQKKKNK, the protein stability index was 0.663 ± 0.0072. With TINVWFARTNPD the protein stability index was 0.7403 ± 0.0048. RVVMIYAQWCLP showed a protein stability index of 0.623 ± 0.011. Sequence VPPSKQRSRIKD has a protein stability index of 0.675 ± 0.028. For DNSIWPSALCAP, the protein stability index was 0.703 ± 0.047. With PPPSSPTSGHSP the protein stability index was 0.771 ± 0.19. ENVGRASDHSLS gave a protein stability index of 0.679 ± 0.097. LVSWFWPFSFFA gave a protein stability index of 0.661 ± 0.098. In the case of PRLRRVCGQSLV, the protein stability index is reported as 0.6664 ± 0.0066. RITTNQMNIKFI was tested, and the protein stability index was 0.653 ± 0.02. Sequence GQSLGLPGRWYI has a protein stability index of 0.775 ± 0.06. For GGPPFAPPPPPH, the protein stability index was 0.71 ± 0.026. HLPRRAAILNEF was tested, and the protein stability index was 0.709 ± 0.049. With VRFARSGPAHVC the protein stability index was 0.6607 ± 0.003. Sequence ITSITRFKVDSR has a protein stability index of 0.628 ± 0.022. With DSESSLPSLPHT the protein stability index was 0.682 ± 0.015. PKKREKKKKKEK was tested, and the protein stability index was 0.66 ± 0.073. GFSSSFAGGLLF showed a protein stability index of 0.763 ± 0.036. With AVYSACSRVGWV the protein stability index was 0.6937 ± 0.0061. In the case of LLNNNLNQRIYQ, the protein stability index is reported as 0.729 ± 0.019. Work on KKKVAITPQQTR yielded a protein stability index of 0.685 ± 0.23. For EHFGFYFIFNLY, the protein stability index was 0.58 ± 0.034. RDFLLLASHLRF showed a protein stability index of 0.764 ± 0.056. VPPPVCAVPPPL was tested, and the protein stability index was 0.684 ± 0.036. Sequence ARADILLLTWGV has a protein stability index of 0.604 ± 0.027. In the case of SCPPRLVFPRPS, the protein stability index is reported as 0.66 ± 0.034. In the case of VHCNLKLDASNF, the protein stability index is reported as 0.719 ± 0.058. SGVCGRVGGGLR gave a protein stability index of 0.622 ± 0.047. Sequence PPPPPPPPRPLL has a protein stability index of 0.787 ± 0.16. LPPLPLRSLSSP showed a protein stability index of 0.746 ± 0.025. In the case of EGRRCQGGVWRE, the protein stability index is reported as 0.6818 ± 0.0061. Work on LFYFPVLSGFLA yielded a protein stability index of 0.578 ± 0.002. For PLWRVPPYPPSP, the protein stability index was 0.691 ± 0.031. ATCSILPSRLSI gave a protein stability index of 0.6124 ± 0.0011. FAFVCLASILGS was tested, and the protein stability index was 0.5313 ± 0.0017. AFCCRSPPSSHP showed a protein stability index of 0.655 ± 0.096. For VARADLVVTFRI, the protein stability index was 0.703 ± 0.073. For EAGGAQGPTGEL, the protein stability index was 0.634 ± 0.02. With LTGFYFFFDMTL the protein stability index was 0.6366 ± 0.0032. In the case of PPSRAPPAFPPL, the protein stability index is reported as 0.827 ± 0.2. RGTGPPGALREE gave a protein stability index of 0.653 ± 0.046. Work on VQTYVRARVDRL yielded a protein stability index of 0.711 ± 0.024. In the case of PPPPPPHPLLST, the protein stability index is reported as 0.708 ± 0.073. LPWCSTLEIRER was tested, and the protein stability index was 0.694 ± 0.011. Work on SFFRFRIPLFPS yielded a protein stability index of 0.669 ± 0.065. Sequence GAGRRRAQEQQT has a protein stability index of 0.728 ± 0.015. LVVEYFLCGSIS showed a protein stability index of 0.532 ± 0.035. With VDRRCTGLISSS the protein stability index was 0.668 ± 0.05. In the case of GKEWRGSGGMRR, the protein stability index is reported as 0.646 ± 0.014. Sequence PHPLSPRPPPSL has a protein stability index of 0.746 ± 0.013.
